T1: Human BCMA-Bio (human, UniProt Q02223 1-54, biotin-labeled)
T1 construct: Bought antigen; also called human BCMA antigen (ACRO Biosystems)
T1 sequence (looked up): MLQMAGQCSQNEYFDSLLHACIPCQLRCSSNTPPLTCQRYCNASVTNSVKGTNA


Experiments:
human GPRC5D [1] = molecular target: T2, human GPRC5D (human, UniProt Q9NZD1 1-345); assay: flow cytometry on H929 cells
T2 construct: whole, on cells; also called huGPRC5D; G protein-coupled receptor family C group 5 member D
Experimental: (§1) The affinity of the anti-GPRC5D antibody was detected by flow cytometry. Antibodies at various concentrations were co-incubated with cells expressing human GPRC5D, including GS-CHO cells overexpressing human GPRC5D (huGPRC5D GS-CHO), multiple myeloma cells MM1.R, H929 and AMO-1, for 30 min. A fluorescently-labeled secondary antibody (APC-mouse anti-human IgG Fc antibody, Biolegend, Cat #409306) was then added, the cell fluorescence intensity was detected using a Live/Dead yellow dead cell stain (Thermo Fisher, Cat #L34967) by flow cytometry, a curve was fitted using GraphPad Prism 8.0, and the EC50 value was calculated to show the binding affinity of the antibody to human GPRC5D.
(§2) Among the antibodies detected, HB15H1G1 (the heavy chain variable region of SEQ ID NO: 25, and the light chain variable region of SEQ ID NO: 26) was a fully human antibody, and ch5E12C4 (the heavy chain variable region of SEQ ID NO: 98, and the light chain variable region of SEQ ID NO: 99), ch11B7 (the heavy chain variable region of SEQ ID NO: 100, and the light chain variable region of SEQ ID NO: 101) and ch7F5D4 antibodies (the heavy chain variable region of SEQ ID NO: 27, and the light chain variable region of SEQ ID NO: 28) were chimeric antibodies.

human GPRC5D [2] = molecular target: T2, human GPRC5D; assay: flow cytometry on AMO-1 cells
Experimental: as §1, §2

human GPRC5D [3] = molecular target: T2, human GPRC5D; assay: flow cytometry on MM1.R cells
Experimental: as §1, §2

human GPRC5D [4] = molecular target: T2, human GPRC5D; assay: flow cytometry on huGPRC5D-GS-CHO cells
Experimental: as §1, §2

[5] = molecular target: T3, CD3E on the surface of Jurkat-NFAT-Luc cells (UniProt P07766 23-207); assay: cell-based or functional assay
[6] = molecular target: T3, CD3E on the surface of Jurkat-NFAT-Luc …; assay: cell-based or functional assay; remark: listed apart in the source
human GPRC5D [7] = molecular target: T2, human GPRC5D; assay: flow cytometry on huGPRC5D GS-CHO cells
Experimental: as §1
In the exemplary trispecific antibodies, the binding affinities of the antigen-binding sites from the humanized antibodies hz5E12.1.P1 and hz11B7.5 to GPRC5D were detected.

Human BCMA-Bio = molecular target: T1, Human BCMA-Bio; assay: BLI (Octet Red96e), SA or AHC sensors, 1:1 fit
Experimental: (§3) Sensors (Fortebio, Cat #18-5019) coupled to streptavidin protein (SA) or anti-human-Fc (AHC) were pre-wetted by immersion in 200 μL of SD buffer (1×PBS, 0.1% BSA, 0.05% tween-20). Exemplary antibodies and biotin-labeled or Fc-tagged BCMA and CD3D&E heterodimer antigens were diluted with SD buffer, respectively. 200 μL of SD buffer and diluted samples (100 nM) were taken and added to a 96-well black plate (Greiner, Cat #655209), respectively. The sensors and the samples were placed in Octet (Fortebio, Red96e). Data Acquisition 10.0 was executed and “New Kinetic Experiment” was selected. The sensors were arranged according to the positions of the samples, and the operation procedures and times were set as: Baseline 60 s, Loading 250 s, Baseline 100 s, Association 600 s and Dissociation 600 s. The experiment was conducted at a rotation speed of 1000 rpm and 30° C.
(§4) The results were analyzed in “Data Analysis 10.0” software, with the buffer reference channel being subtracted. 1:1 binding was selected to fit the data, and kₒₙ, koff, and KD values for the exemplary antibodies were calculated.
(§5) In the experiments performed according to the above-mentioned assay, the exemplary antibodies were detected using a human BCMA antigen (ACRO Biosystems) and a monkey BCMA antigen (ACRO Biosystems). The detection results of the affinities to human BCMA are shown in Table 6; and the detection results of the affinities to monkey BCMA are shown in Table 7.

Cyno BCMA-Fc = molecular target: T4, Cyno BCMA-Fc (monkey (cyno), UniProt A0A2K5UD97 1-53); assay: BLI (Octet Red96e), SA or AHC sensors, 1:1 fit
T4 construct: also called monkey BCMA antigen (ACRO Biosystems); not shown: Fc tag of the bought antigen
Experimental: as §3, §4, §5

Human CD3D&E-Bio = molecular target: T5, Human CD3D&E-Bio (human, UniProt P07766 23-126; P04234 22-105, biotin-labeled (site not stated)); assay: BLI (Octet Red96e), SA or AHC sensors, 1:1 fit
T5 construct: Bought heterodimer antigen; also called human CD3D&E heterodimer antigen (ACRO Biosystems); human CD3E
Experimental: as §3, §4
(§6) In experiments performed according to the above-mentioned assay, the affinities of the exemplary antibodies were detected using a human CD3D&E heterodimer antigen (ACRO Biosystems) and a monkey CD3D&E heterodimer antigen (ACRO Biosystems). The binding affinities of GPRC5D×CD3 bispecific antibodies hz5E12.1-P1/SP34.24 and hz5E12.1-P1/SP34.87 to human/monkey CD3D&E were also detected.

Cyno CD3D&E-Bio = molecular target: T6, Cyno CD3D&E-Bio (monkey (cyno), UniProt Q95LI5 22-117; Q95LI8 22-105, biotin-labeled (site not stated)); assay: BLI (Octet Red96e), SA or AHC sensors, 1:1 fit
T6 construct: Bought heterodimer antigen; also called monkey CD3D&E heterodimer antigen (ACRO Biosystems); monkey CD3E
Experimental: as §3, §4, §6

T4 sequence (A0A2K5UD97 entry or part of it): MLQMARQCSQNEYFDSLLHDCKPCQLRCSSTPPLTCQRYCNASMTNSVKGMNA
T6 sequence (Q95LI5 22-117 limits assumed, chain 1 of 2): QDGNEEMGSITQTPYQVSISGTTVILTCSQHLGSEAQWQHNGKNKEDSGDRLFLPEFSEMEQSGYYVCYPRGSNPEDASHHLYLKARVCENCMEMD
T6 sequence (Q95LI8 22-105 limits assumed, chain 2 of 2): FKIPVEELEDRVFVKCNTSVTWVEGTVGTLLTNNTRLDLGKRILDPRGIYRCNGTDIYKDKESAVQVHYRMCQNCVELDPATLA
T3 sequence (P07766 23-207): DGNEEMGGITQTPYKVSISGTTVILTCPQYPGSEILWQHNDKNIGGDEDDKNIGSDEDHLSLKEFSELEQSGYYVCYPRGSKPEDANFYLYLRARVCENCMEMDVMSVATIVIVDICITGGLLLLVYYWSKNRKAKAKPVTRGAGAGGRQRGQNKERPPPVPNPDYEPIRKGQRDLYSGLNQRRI
T5 sequence (P07766 23-126 limits assumed, chain 1 of 2): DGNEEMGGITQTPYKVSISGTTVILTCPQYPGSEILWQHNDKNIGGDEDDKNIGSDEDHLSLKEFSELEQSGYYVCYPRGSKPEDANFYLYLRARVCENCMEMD
T5 sequence (P04234 22-105 limits assumed, chain 2 of 2): as the sequence (Q95LI8 22-105 limits assumed, chain 2 of 2) above, with V5I, K15N, V20I, T32S, N33D, N34I, A64T, N74S, L83V counted along it
T2 sequence (Q9NZD1 whole entry): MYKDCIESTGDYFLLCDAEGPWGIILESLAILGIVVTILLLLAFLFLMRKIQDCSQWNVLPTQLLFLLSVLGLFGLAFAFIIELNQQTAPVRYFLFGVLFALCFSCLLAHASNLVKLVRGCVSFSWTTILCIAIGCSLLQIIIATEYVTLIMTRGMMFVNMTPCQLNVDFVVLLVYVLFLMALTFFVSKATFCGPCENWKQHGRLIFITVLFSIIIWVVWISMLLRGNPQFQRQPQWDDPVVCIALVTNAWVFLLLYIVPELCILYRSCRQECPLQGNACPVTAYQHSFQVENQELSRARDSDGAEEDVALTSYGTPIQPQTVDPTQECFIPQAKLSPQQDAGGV

| Binder | EC50 (human GPRC5D [1]) | EC50 (human GPRC5D [2]) | EC50 (human GPRC5D [3]) | EC50 (human GPRC5D [4]) | EC50 of Jurkat-NFAT-Luc luciferase activation; tumor cells 8226 [5] | EC50 of Jurkat-NFAT-Luc luciferase activation; tumor cells H929 [5] | EC50 of Jurkat-NFAT-Luc luciferase activation; tumor cells L363 [5] | EC50 of Jurkat-NFAT-Luc luciferase activation; tumor cells U266 [5] | EC50 of Jurkat-NFAT-Luc luciferase activation; tumor cells ARD [6] | EC50 of Jurkat-NFAT-Luc luciferase activation; tumor cells MM.1S [6] | EC50 (human GPRC5D [7]) | Kd (Human BCMA-Bio) | koff (Human BCMA-Bio) | kon (Human BCMA-Bio) | Kd (Cyno BCMA-Fc) | koff (Cyno BCMA-Fc) | kon (Cyno BCMA-Fc) | Kd (Human CD3D&E-Bio) | koff (Human CD3D&E-Bio) | kon (Human CD3D&E-Bio) | further results |
| --- | --- | --- | --- | --- | --- | --- | --- | --- | --- | --- | --- | --- | --- | --- | --- | --- | --- | --- | --- | --- | --- |
| HB15H1G1 (antibody, V domains shown, Fully human anti-GPRC5D antibody; also called HB15H1B1) VH: QVQLVESGGGVVQPGRSLRLSCTASGFTFSSYGLHWVRQAPGKGLEWVAVIWYDGSNKYYIDSVKGRFIISRDNSKNTLYLQMNSLRAEDTAVYYCARFTMFRGITLDYWGQGTLVTVSS VL: DIQMTQSPSSLSASVGDRVTITCRASQRINSYLNWYQQKPGKAPKLLIYAASSLQSGVPSRFSGSGSGTDFTLTISNLQPEDFATYYCQQSYSTPLTFGGGTKVEIK | 3.7 nM | 9.4 nM | 0.7 nM | 1.89 nM | – | – | – | – | – | – | – | – | – | – | – | – | – | – | – | – | – |
| TS-F2-4 (hz5E12.1.P1/SP34.24/38456) (antibody, human IgG1, kappa, lambda, L234A L235A) heavy 1: not shown light 1: DIVMTQSPDSLAVSLGERATINCRASESVDSYGITFMNWYQQKPGQPPKLLIYAASNQGSGVPDRFSGSGSGTDFTLTISSLQAEDVAVYYCQQSKEVPWTFGQGTKLEIKRTVAAPSVFIFPPSDEQLKSGTASVVCLLNNFYPREAKVQWKVDNALQSGNSQESVTEQDSKDSTYSLSSTLTLSKADYEKHKVYACEVTHQGLSSPVTKSFNRGEC heavy 2: not shown light 2: QAVVTQEPSLTVSPGGTVTLTCRSSTGAVTTSNYANWVQQKPGQAPRGLIGGTNKRAPGVPARFSGSLLGDKAALTLLGAQPEDEAEYYCALWYSNLWVFGQGTKLTVLGQPKAAPSVTLFPPSSEELQANKATLVCLISDFYPGAVTVAWKADSSPVKAGVETTTPSKQSNNKYAASSYLSLTPEQWKSHRSYSCQVTHEGSTVEKTVAPTECS | – | – | – | – | 0.00788 nM | 0.00738 nM | 0.00629 nM | 0.0503 nM | 0.00238 nM | 0.00179 nM | 40 nM | 2.27 nM | 0.000297 s⁻¹ | 131000 M⁻¹ s⁻¹ | 0.204 nM | 0.0002 s⁻¹ | 980000 M⁻¹ s⁻¹ | 22.1 nM | 0.00326 s⁻¹ | 147000 M⁻¹ s⁻¹ | Kd (Cyno CD3D&E-Bio): 22.7 nM; koff (Cyno CD3D&E-Bio): 0.00301 s⁻¹; kon (Cyno CD3D&E-Bio): 132000 M⁻¹ s⁻¹ |
| TS-F2-5 (hz5E12.1.P1/SP34.87/38456) (antibody, human IgG1, kappa, lambda, L234A L235A) heavy 1: not shown light 1: DIVMTQSPDSLAVSLGERATINCRASESVDSYGITFMNWYQQKPGQPPKLLIYAASNQGSGVPDRFSGSGSGTDFTLTISSLQAEDVAVYYCQQSKEVPWTFGQGTKLEIKRTVAAPSVFIFPPSDEQLKSGTASVVCLLNNFYPREAKVQWKVDNALQSGNSQESVTEQDSKDSTYSLSSTLTLSKADYEKHKVYACEVTHQGLSSPVTKSFNRGEC heavy 2: not shown light 2: QAVVTQEPSLTVSPGGTVTLTCRSSTGAVTTSNYANWVQQKPGQAPRGLIGGTNKRAPGVPARFSGSLLGDKAALTLLGAQPEDEAEYYCALWYSNLWVFGQGTKLTVLGQPKAAPSVTLFPPSSEELQANKATLVCLISDFYPGAVTVAWKADSSPVKAGVETTTPSKQSNNKYAASSYLSLTPEQWKSHRSYSCQVTHEGSTVEKTVAPTECS | – | – | – | – | 0.0211 nM | 0.0178 nM | 0.0213 nM | 0.858 nM | 0.00696 nM | 0.00734 nM | 45 nM | 2.1 nM | 0.000279 s⁻¹ | 133000 M⁻¹ s⁻¹ | 0.21 nM | 0.0002 s⁻¹ | 950000 M⁻¹ s⁻¹ | 243 nM | 0.0188 s⁻¹ | 77500 M⁻¹ s⁻¹ | Kd (Cyno CD3D&E-Bio): 220 nM; koff (Cyno CD3D&E-Bio): 0.0173 s⁻¹; kon (Cyno CD3D&E-Bio): 78600 M⁻¹ s⁻¹ |
| ch7F5D4 (antibody, V domains shown) VH: DVQLQESGPGLVKPSQSLSLTCTVTGYSITSDYAWNWIRQFPGNKLEWMVYIDYTGRTSYNPSLKSRISLTRDTSKNQFFLQFNSVTTEDTATYYCARGNYGRYYYVMDYWGQGTSVTVSS VL: DIQMTQTTSSLSASLGDRVTISCRASQDIRNYLNWYQQRPDGTIKLLIYYTSRLHSGVPSRFSGSGSGTDYSLTISNLDQEDFATYFCQQGNMLPWTFGGGTSLEIK | 7.3 nM | 6.3 nM | 0.5 nM | 2.59 nM | – | – | – | – | – | – | – | – | – | – | – | – | – | – | – | – | – |

From patent publication US20250074996A1 (Innovent, published 2025)
